The values that follow come from patent publication US20140112926A1.

The target of assay [1] is GST-tagged version of human FcγRIIIA (human) (UniProt P08637). Nature of the assay: AlphaLISA vs biotin-huIgG, supernatant, round 1. For orientation: Alpha assays give light when donor and acceptor beads are brought close together.
For assay [2] the target is unchanged. Nature of the assay: AlphaLISA vs biotin-huIgG, supernatant, round 2.
Assay [3] shares this target. Nature of the assay: AlphaLISA vs biotin-huIgG, supernatant, round 3.

GST-tagged version of human FcγRIIIA (human), sequence (P08637 17-208 limits assumed): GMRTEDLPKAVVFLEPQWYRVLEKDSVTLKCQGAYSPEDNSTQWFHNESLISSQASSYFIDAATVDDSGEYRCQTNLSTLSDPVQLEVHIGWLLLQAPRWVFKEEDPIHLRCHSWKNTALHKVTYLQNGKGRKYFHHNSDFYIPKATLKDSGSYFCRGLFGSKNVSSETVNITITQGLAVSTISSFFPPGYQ

The % inhibition is the drop in the measured response relative to a control, in per cent. Read a high % inhibition as a strong effect. As for “scFv-Fc/Fc, T307S in scFv-Fc (Fc fusion)”, the values for the % inhibition in assay [1], in assay [2] and in assay [3] were 41.3%, 42.1% and 34.6%, respectively. Moreover, the Alpha signal in assay [3] worked out at 51400.

With “scFv-Fc/Fc, V302Q in dummy Fc (Fc fusion)”, the figures for the % inhibition in assay [1], in assay [2] and in assay [3] were 47%, 55.3% and 57.4%, respectively. Further, the Alpha signal was determined as 40300 in assay [1], 35900 in assay [2] and 33400 in assay [3].

Regarding “scFv-Fc/Fc, Y296L in scFv-Fc (Fc fusion)”, the % inhibition in assay [1] is 23.1%; in assay [2], 24.7%; in assay [3] it was 18.2%. The Alpha signal came to 58500 in assay [1], 60600 in assay [2] and 64300 in assay [3].

For the substance “scFv-Fc/Fc, Y296W in scFv-Fc (Fc fusion)”, the % inhibition was found to be 66.7% in assay [1], 72.9% in assay [2] and 68.5% in assay [3]. Moreover, the Alpha signal in assay [1] amounted to 25300; in assay [2], 21800; in assay [3], 24800.

In the case of “scFv-Fc/Fc, no substitution (charge pair mutations only) (Fc fusion)”, the % inhibition in assay [1], in assay [2] and in assay [3] was 0% in each case. The results for the Alpha signal in assay [1], in assay [2] and in assay [3] were 76000, 80400 and 78600, respectively.
